Target: wild-type EGFR kinase domain (residues 672-998 of human EGFR) with N-terminal 6-His tag, linker and TEV site (human, UniProt P00533 672-998)
Assay: cell-based or functional assay

## SYLNGVMPPTQSFAPDPKYVSSKAL [25-residue MIG6 peptide (residues 340-364)]
  IC50, inhibition of activated EGFR kinase: ~100 µM

From patent publication US20100323957A1 (University of California, published 2010)
